{"source": "paper PMC4837482", "about": "“The complex binding mode of the peptide hormone H2 relaxin to its receptor RXFP1” (Nature Communications, 2016)", "experiment_in_all_cases": "cAMP activity assay (pCRE β-galactosidase reporter), transfected HEK293T cells", "type_in_all_cases": "cell-based", "key": {"RXFP1 C40A^ins": {"target": "T1, RXFP1 C40A^ins (Homo sapiens, UniProt Q9HBX9, INS62A)", "T1 construct": "cells expressing full-length RXFP1 and mutants; expressed in transfected cells; host or cells: HEK293T", "T1 sequence (Q9HBX9 with tags, fused parts or gaps INS62A limits assumed)": "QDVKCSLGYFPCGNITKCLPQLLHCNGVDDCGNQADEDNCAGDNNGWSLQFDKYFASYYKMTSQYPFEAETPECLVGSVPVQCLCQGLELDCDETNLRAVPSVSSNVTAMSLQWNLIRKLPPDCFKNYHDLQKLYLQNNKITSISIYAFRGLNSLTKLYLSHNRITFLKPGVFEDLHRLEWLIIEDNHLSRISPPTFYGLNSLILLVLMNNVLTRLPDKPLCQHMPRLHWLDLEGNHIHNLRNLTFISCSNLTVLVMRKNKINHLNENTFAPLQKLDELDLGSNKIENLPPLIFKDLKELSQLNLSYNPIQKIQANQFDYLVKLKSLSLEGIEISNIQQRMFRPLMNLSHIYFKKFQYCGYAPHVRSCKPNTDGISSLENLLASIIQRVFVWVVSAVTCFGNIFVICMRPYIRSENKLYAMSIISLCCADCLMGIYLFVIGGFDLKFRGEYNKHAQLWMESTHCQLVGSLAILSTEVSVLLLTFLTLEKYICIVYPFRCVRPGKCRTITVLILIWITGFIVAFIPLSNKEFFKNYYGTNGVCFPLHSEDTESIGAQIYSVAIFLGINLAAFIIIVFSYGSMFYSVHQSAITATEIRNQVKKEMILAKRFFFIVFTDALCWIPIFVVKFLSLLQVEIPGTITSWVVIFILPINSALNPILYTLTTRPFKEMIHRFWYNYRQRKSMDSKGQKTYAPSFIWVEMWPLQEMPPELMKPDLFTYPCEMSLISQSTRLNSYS", "conditions": "construct C40A^ins", "summary_of_the_method": "(§1)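 Stim: H2 relaxin in minimal media/1% DMSO; +ctrl 5 μM Forskolin, −ctrl vehicle. Plates frozen −80 °C o/n, lysed 10 min + 10 min in Na2HPO4 pH 8.0 buffers, CPRG substrate, A570. Data = % Forskolin max.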"}, "RXFP1 E67A": {"target": "T2, RXFP1 E67A (Homo sapiens, UniProt Q9HBX9, E89A)", "T2 construct": "cells expressing full-length RXFP1 and mutants; expressed in transfected cells; host or cells: HEK293T", "T2 sequence (Q9HBX9 23-757 E89A limits assumed)": "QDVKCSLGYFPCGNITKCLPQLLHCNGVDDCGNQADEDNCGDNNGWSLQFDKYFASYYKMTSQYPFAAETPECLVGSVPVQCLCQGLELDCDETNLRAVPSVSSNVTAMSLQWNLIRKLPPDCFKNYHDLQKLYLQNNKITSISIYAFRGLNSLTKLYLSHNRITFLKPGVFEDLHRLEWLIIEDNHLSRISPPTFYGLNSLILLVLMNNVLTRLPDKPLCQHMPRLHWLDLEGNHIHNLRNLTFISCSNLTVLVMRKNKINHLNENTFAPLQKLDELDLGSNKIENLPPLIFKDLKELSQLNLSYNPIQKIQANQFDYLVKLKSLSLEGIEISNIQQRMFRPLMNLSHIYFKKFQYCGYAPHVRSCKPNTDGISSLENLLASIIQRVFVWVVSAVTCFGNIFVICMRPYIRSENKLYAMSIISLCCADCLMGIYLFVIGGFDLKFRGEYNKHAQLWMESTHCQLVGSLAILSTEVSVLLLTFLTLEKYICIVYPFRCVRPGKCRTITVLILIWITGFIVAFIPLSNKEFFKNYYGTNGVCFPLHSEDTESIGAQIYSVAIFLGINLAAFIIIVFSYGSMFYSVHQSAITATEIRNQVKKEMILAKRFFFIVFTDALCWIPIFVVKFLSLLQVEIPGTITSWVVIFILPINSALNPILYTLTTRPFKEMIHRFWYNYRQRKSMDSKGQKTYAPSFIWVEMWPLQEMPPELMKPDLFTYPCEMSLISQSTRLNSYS", "conditions": "construct E67A, ±s.e.m.", "summary_of_the_method": "as §1"}, "RXFP1 N43N44-AA": {"target": "T3, RXFP1 N43N44-AA (Homo sapiens, UniProt Q9HBX9, N65A/N66A)", "T3 construct": "transiently transfected human embryonic kidney (HEK) 293T cells expressing full-length RXFP1 and mutants; expressed in transfected cells; host or cells: HEK293T", "T3 sequence (Q9HBX9 23-757 N65A/N66A limits assumed)": "T2 sequence (Q9HBX9 23-757 E89A limits assumed) with N43A, N44A, A67E", "summary_of_the_method": "as §1"}, "[1]": {"conditions": "percentage of maximum response to 5 μM Forskolin"}}, "note": "Changes are numbered by the printed parent chain.", "data": [{"substance": "H2 relaxin: two-chain 6-kDa peptide hormone structurally related to insulin; recombinant human gene-2 H2 relaxin provided by Corthera", "values": [{"measurement": "H2 relaxin pEC50", "setting": "RXFP1 C40A^ins; cAMP reporter", "result": "No activity"}, {"measurement": "H2 relaxin Emax", "setting": "RXFP1 C40A^ins; [1]", "result": "No activity"}, {"measurement": "H2 relaxin pEC50", "setting": "RXFP1 E67A; cAMP reporter", "result": "11.13±0.13"}, {"measurement": "H2 relaxin Emax", "setting": "RXFP1 E67A; [1]", "result": "141.74±27.08 (5) %"}, {"measurement": "loss of H2 relaxin-stimulated cAMP activity", "setting": "RXFP1 N43N44-AA; N43A/N44A RXFP1 versus wild-type RXFP1", "result": 500, "unit": "fold"}, {"measurement": "H2 relaxin pEC50", "setting": "RXFP1 N43N44-AA; construct N43N44-AA, cAMP reporter, ±s.e.m.", "result": "8.29±0.63 (3)"}, {"measurement": "H2 relaxin Emax", "setting": "RXFP1 N43N44-AA; construct N43N44-AA, percentage of maximum response to 5 μM Forskolin, ±s.e.m.", "result": "118.90±12.81 (3) %"}]}]}
